Where “and” joins values, the source holds several entries; their conditions need not be identical. Equal entries are not always repeated.

Data on two compounds can be found in article PMC5384750 (PLoS ONE, 2017).

For data set [1], the system named is X4-tropic field isolate HIV-1 BK132. The data set is described as follows: HIV-1 replication capacity in activated PBMCs (RT activity, AUC). The data set is classed as cell-based. Conditions: 50 μg/ml insulin or 10 μM 6bK, permanent treatment; PHA-IL2-stimulated PBMCs from 3 different donors (S6 Fig). The procedure: For infection, PBMCs were isolated from buffy coats of several blood donors and stimulated with PHA and IL-2 for three days. 1×10^6 PBMCs were incubated overnight with virus preparations equivalent to 0.031 ng of p24, and cell culture supernatant was collected every second or third day post infection (dpi). […] Virus replication was assessed by quantification of the virus-associated RT activity by [^32P]-TTP incorporation, using an oligo(dT)-poly(A) template as described elsewhere. In case of replications with inhibitor treatment, cell viability was determined in parallel by WST-1 assay (Roche) according to the manufacturer’s instructions on the last day of replication. For estimation of the multiplicity of infection (MOI), infectious units of virus stocks were determined by TCID50 end point titration in activated PBMCs. […] The MOI was calculated as the ratio of infectious units per target cells and was ~10^−4 in case of 0.031 ng p24 of input virus.
To determine the replication capacity of HIV-1 following infection with the indicated HIV-1 variants, the respective replication profiles were depicted as diagram (y-axis: RT activity; x-axis: dpi) and the area under curve was calculated and defined as the corresponding replication capacity of the HIV-1 variants. […] Viability of treated cells was assessed on the last day of replication by the water-soluble tetrazolium method. […]

Another data set has as its system purified mammalian IDE. Particulars: purified mammalian IDE; cited from earlier work.
Data set [2] addresses T1, insulin-degrading enzyme (IDE) (Homo sapiens, UniProt P14735).
T1 construct: endogenous in cells; host or cells: HeLa cells (cytosolic S10 extract)
Nature of the data set: Inhibition of Aβ-FITC degradation in S10 extract. Particulars: titration; 10 ng Aβ-FITC, 5 μg S10, 45 min, 37°C; fluorescence. The data set is classed as biochemical. The method, then: […] Reactions were stopped by addition of sample buffer and incubation at 95°C for 5 min. Remaining p6 was detected by Western blotting using an anti-p6 rabbit antiserum. Alternatively, 10 ng of BODIPY FL-labeled sp6 (sp6BY) were used as substrate and detected directly in the polyacrylamide gel by fluorescence scanning. In some experiments the amount of p6 was densitometrically quantified with the software AIDA (Raytest). For the in vitro degradation of amyloid-β 10 ng of Aβ-FITC (abcam) were used analogously to sp6BY. For the in vitro degradation of viral p6, VLPs were pelleted and lysed in IDE enzyme buffer (150 mM NaCl, 50 mM Tris pH 7.4, 0.5% (v/v) Triton X-100). The p6 content was estimated by Western blotting using a dilution series of sp6 with known concentrations. Equivalents of 15 ng were used for digestion experiments and subsequently detected by Western blotting. Experiments carried out with recombinant IDE (Calbiochem) were performed in IDE enzyme buffer. Recombinant FITC-labeled insulin was purchased from Sigma.
Supplementary file pone.0174254.s003.tif: S3 Fig p6 competes with the in vitro degradation of Aβ. […] Aβ-FITC was detected by measurement of fluorescence excitation. The band marked with * represents Aβ-oligomers and has been described earlier. (B) Band intensities were quantified for four independent experiments and values represent the arithmetic mean ± SD. […]

For the next data set, the system named is R5-tropic HIV-1NL4-3. The data set is described as follows: HIV-1 replication capacity in activated PBMCs (RT activity, AUC). The data set is classed as cell-based. Particulars: 50 μg/ml insulin or 10 μM 6bK, permanent treatment; PHA-IL2-stimulated PBMCs from 3 different donors. The method, then:
(§1) For infection, PBMCs were isolated from buffy coats of several blood donors and stimulated with PHA and IL-2 for three days. 1×10^6 PBMCs were incubated overnight with virus preparations equivalent to 0.031 ng of p24, and cell culture supernatant was collected every second or third day post infection (dpi). […] Virus replication was assessed by quantification of the virus-associated RT activity by [^32P]-TTP incorporation, using an oligo(dT)-poly(A) template as described elsewhere. In case of replications with inhibitor treatment, cell viability was determined in parallel by WST-1 assay (Roche) according to the manufacturer’s instructions on the last day of replication. For estimation of the multiplicity of infection (MOI), infectious units of virus stocks were determined by TCID50 end point titration in activated PBMCs. The number of HIV-1 target cells was estimated to be 50% of total PBMCs as reported in [93]. The MOI was calculated as the ratio of infectious units per target cells and was ~10^−4 in case of 0.031 ng p24 of input virus.
(§2) To determine the replication capacity of HIV-1 following infection with the indicated HIV-1 variants, the respective replication profiles were depicted as diagram (y-axis: RT activity; x-axis: dpi) and the area under curve was calculated and defined as the corresponding replication capacity of the HIV-1 variants. In every experiment the replication capacity of the untreated wt was set to 100% and compared with the indicated variants. Viability of treated cells was assessed on the last day of replication by the water-soluble tetrazolium method. All conditions were not found to diminish cell viability.

Data set [3] has as its system X4-tropic HIV-1NL4-3 3xPTAPPA mutant. The description is as above. The data set is classed as cell-based. Particulars: 50 μg/ml insulin or 10 μM 6bK, permanent treatment; PHA-IL2-stimulated PBMCs from 3 different donors. The procedure:
as §1, §2

The next data set deals with X4-tropic HIV-1NL4-3 wt. The data set is described as above. Format: cell-based. Conditions: continuous treatment with 50 μg/ml insulin; PHA-IL2-stimulated PBMCs from 3 different donors; MOI ~10^−4; untreated wt = 100%. The method, then: as §1, §2
The next data set concerns the target T2, recombinant IDE (rIDE) (Rattus norvegicus, UniProt P35559).
T2 construct: purchased Calbiochem
The data set is described as follows: Inhibition of rIDE-mediated degradation of sp6BY. Format: biochemical. Particulars: 10 ng rIDE, 10 ng sp6BY, 30 min, 37°C; TPEN 1 mM, NEM 1 mM, insulin 100 μg/ml. The method, then: Fig 6 IDE is sufficient and required for the in vitro degradation of sp6 and vp6. (A) 10 ng sp6BY were incubated with 5 μg S10 extract from HeLa cells, either untransfected or transfected with control or IDE-specific siRNA, for 0, 10, 30 or 90 min at 37°C. (B) sp6BY was detected by fluorescence emission and quantified. (C) VLP lysates from HEK293T cells were incubated with S10 from siRNA treated cells described in A. Viral proteins were detected as described in Fig 1. (D) Western blot analyses of the S10 extract used in A and C. The membrane was stained with antibodies specific for IDE, HSP70, and β-actin. […] (F) VLP lysates were incubated with 10 ng rIDE for 30 min.
(§3) Typically 5 μg S10 were incubated with inhibitor or buffer and 20–100 ng sp6 at 37°C for 30 min. Reactions were stopped by addition of sample buffer and incubation at 95°C for 5 min. Remaining p6 was detected by Western blotting using an anti-p6 rabbit antiserum. Alternatively, 10 ng of BODIPY FL-labeled sp6 (sp6BY) were used as substrate and detected directly in the polyacrylamide gel by fluorescence scanning. In some experiments the amount of p6 was densitometrically quantified with the software AIDA (Raytest). For the in vitro degradation of amyloid-β 10 ng of Aβ-FITC (abcam) were used analogously to sp6BY. For the in vitro degradation of viral p6, VLPs were pelleted and lysed in IDE enzyme buffer (150 mM NaCl, 50 mM Tris pH 7.4, 0.5% (v/v) Triton X-100). The p6 content was estimated by Western blotting using a dilution series of sp6 with known concentrations. Equivalents of 15 ng were used for digestion experiments and subsequently detected by Western blotting. Experiments carried out with recombinant IDE (Calbiochem) were performed in IDE enzyme buffer. Recombinant FITC-labeled insulin was purchased from Sigma.

The target of data set [4] is IDE (S10 extract or rIDE) (Homo sapiens, UniProt P14735). Format: in vitro ADME. Conditions: 30 ng vp6, 5 μg S10 extract, up to 60 min; Western blot densitometry; at least 3 independent experiments. The procedure:
Fig 9 Multiplication of PTAPPA-motifs stabilizes p6. 20 ng of sp6 or 30 ng of vp6 were incubated either with 5 μg S10 extract (A/B/C) or 2 ng of rIDE (D) for up to 60 min. Degradation efficiency was quantified via densitometric analyses of Western blots. Values represent the arithmetic mean ± SD of at least 3 independent experiments for each setting.
as §3, with “Experiments carried out with recombinant IDE (Calbiochem) were performed in IDE enzyme buffer. Recombinant FITC-labeled insulin was purchased from Sigma.” left out
(In general: In western blotting, separated proteins are transferred to a membrane and probed.)

T2 sequence (P35559 whole entry): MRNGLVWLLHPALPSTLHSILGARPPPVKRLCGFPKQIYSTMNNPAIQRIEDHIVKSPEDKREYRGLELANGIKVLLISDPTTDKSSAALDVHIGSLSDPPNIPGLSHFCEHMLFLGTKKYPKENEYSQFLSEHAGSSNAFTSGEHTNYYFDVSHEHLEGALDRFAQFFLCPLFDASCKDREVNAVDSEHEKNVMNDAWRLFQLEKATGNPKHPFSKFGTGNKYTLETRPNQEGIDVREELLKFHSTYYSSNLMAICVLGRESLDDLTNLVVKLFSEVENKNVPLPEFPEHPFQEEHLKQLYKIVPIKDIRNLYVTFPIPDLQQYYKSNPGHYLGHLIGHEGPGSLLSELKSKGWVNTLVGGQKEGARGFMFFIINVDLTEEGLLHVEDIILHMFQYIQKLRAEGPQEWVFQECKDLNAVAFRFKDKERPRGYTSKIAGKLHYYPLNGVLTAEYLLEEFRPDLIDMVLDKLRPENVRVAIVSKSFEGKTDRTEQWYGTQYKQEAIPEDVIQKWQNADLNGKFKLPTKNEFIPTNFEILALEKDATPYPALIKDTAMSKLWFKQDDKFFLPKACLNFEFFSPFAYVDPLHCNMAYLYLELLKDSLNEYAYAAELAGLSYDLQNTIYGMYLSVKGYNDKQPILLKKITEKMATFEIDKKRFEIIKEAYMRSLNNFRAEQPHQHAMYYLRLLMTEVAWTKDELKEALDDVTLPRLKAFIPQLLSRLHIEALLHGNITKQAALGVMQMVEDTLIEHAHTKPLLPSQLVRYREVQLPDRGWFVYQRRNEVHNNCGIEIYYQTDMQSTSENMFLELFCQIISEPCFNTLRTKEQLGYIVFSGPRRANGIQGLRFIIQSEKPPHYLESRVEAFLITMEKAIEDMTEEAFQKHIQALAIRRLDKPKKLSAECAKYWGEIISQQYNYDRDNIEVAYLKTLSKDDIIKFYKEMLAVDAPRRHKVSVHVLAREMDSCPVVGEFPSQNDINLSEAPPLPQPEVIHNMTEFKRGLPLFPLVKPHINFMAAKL

For insulin, the “effect on replication capacity of HIV-1 BK132 compared with HIV-1NL4-3” value in data set [1] is given as “same impact”. Besides, in the data set with purified mammalian IDE, the Michaelis constant (Km) (as a rule, the substrate concentration at which the rate is half of its maximum) was 0.066 µM; the kcat (usually the number of substrate molecules converted per active site and unit of time at saturation) was 0.025 s⁻¹. Further, the “effect on degradation of Aβ-FITC” value in data set [2] is “resulted in a stabilization of Aβ-FITC”. For the same compound, the “effect on replication capacity of R5-tropic HIV-1 (wt and 3xPTAPPA)” value in the data set on R5-tropic HIV-1NL4-3 was “insensitive to exogenous insulin”. Besides, the “effect on replication capacity of the IDE-insensitive 3xPTAPPA mutant” value in data set [3] is given as “insensitive to insulin treatment”. In the data set on X4-tropic HIV-1NL4-3 wt, the “reduction of HIV-1 replication (replication capacity, AUC of RT activity)” value was ~ 50% and 50%. The “stabilization of sp6 in the presence of rIDE” value with recombinant IDE (rIDE) is listed as “stabilized sp6”.

Turning to `CC[C@H](C)[C@H](NC(=O)[C@@H]1CCCN1C(=O)[C@H](CCC(=O)O)NC(=O)[C@H](CCC(N)=O)NC(=O)[C@H](CCCCN)NC(=O)[C@H](CCC(N)=O)NC(=O)[C@H](CO)NC(=O)[C@@H]1CCCN1C(=O)[C@@H](NC(=O)[C@@H](NC(=O)[C@@H](NC(=O)[C@H](CCC(=O)O)NC(=O)[C@H](CCC(=O)O)NC(=O)CNC(=O)[C@H](Cc1ccccc1)NC(=O)[C@H](CCCNC(=N)N)NC(=O)[C@H](Cc1ccccc1)NC(=O)[C@H](CO)NC(=O)[C@H](CCC(=O)O)NC(=O)[C@H](C)NC(=O)[C@@H]1CCCN1C(=O)[C@@H]1CCCN1C(=O)[C@H](C)NC(=O)[C@@H](NC(=O)[C@H](CC(C)C)NC(=O)[C@H](C)NC(=O)[C@@H]1CCCN1C(=O)[C@@H]1CCCN1C(=O)[C@H](C)NC(=O)[C@@H](NC(=O)[C@@H]1CCCN1C(=O)[C@H](CCC(=O)O)NC(=O)[C@@H]1CCCN1C(=O)[C@H](CCCNC(=N)N)NC(=O)[C@H](CO)NC(=O)[C@H](CCC(N)=O)NC(=O)[C@@H](N)CC(C)C)[C@@H](C)O)[C@@H](C)O)[C@@H](C)O)[C@@H](C)O)[C@@H](C)O)C(=O)N[C@@H](CC(=O)O)C(=O)N[C@@H](CCCCN)C(=O)N[C@@H](CCC(=O)O)C(=O)N[C@@H](CC(C)C)C(=O)N[C@@H](Cc1ccc(O)cc1)C(=O)N1CCC[C@H]1C(=O)N[C@@H](CC(C)C)C(=O)N[C@@H](C)C(=O)N[C@@H](CO)C(=O)N[C@@H](CC(C)C)C(=O)N[C@@H](CCCNC(=N)N)C(=O)N[C@@H](CO)C(=O)N[C@@H](CC(C)C)C(=O)N[C@@H](Cc1ccccc1)C(=O)NCC(=O)N[C@@H](CO)C(=O)N[C@@H](CC(=O)O)C(=O)N1CCC[C@H]1C(=O)N[C@@H](CO)C(=O)N[C@@H](CO)C(=O)N[C@@H](CCC(N)=O)C(=O)O` [PL], the “degradation kinetics of vp6 mutants in S10” value in data set [4] was “comparable to their 2x and 3x counterparts”.
